Drawing on publication PMC2807033 (2009), this text covers Kd for 1 molecule.

In this experiment the target is E. coli replicative helicase DnaB, purified (E. coli, UniProt P0ACB0 1-471). As to the kind of experiment: SPR.

No end group written: not given here. *: point of attachment. Biotin = O=C1N[C@H]2[C@H](CS[C@H]2CCCCC(=O)*)N1

Chain of E. coli replicative helicase DnaB, purified (P0ACB0 whole entry): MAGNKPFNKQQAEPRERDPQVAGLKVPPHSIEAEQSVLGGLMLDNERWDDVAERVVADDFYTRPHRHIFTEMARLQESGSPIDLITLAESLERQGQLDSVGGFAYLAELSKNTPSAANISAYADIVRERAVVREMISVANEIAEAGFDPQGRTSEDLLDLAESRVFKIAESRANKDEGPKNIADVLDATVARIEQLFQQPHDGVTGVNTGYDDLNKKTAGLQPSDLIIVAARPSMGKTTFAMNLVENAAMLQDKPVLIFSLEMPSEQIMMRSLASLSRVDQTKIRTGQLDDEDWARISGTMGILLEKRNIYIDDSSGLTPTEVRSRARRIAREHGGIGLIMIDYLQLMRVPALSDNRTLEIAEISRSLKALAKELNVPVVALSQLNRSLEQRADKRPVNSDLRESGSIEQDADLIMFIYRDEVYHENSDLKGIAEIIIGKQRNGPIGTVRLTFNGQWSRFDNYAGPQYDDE

B1: C33^Rep peptide (synthetic peptide corresponding to the C-terminal 33 residues of Rep) (peptide)
peptide: Biotin-EQERKVVSAEERMQKGQSHLANLKAMMAAKRGK
B1: binding was put at a Kd of 44 nM.
